# Ends that are not written are not given here.
# T1: hDMX_(1-200) (human, UniProt O15151 1-200)
# T1 sequence (looked up): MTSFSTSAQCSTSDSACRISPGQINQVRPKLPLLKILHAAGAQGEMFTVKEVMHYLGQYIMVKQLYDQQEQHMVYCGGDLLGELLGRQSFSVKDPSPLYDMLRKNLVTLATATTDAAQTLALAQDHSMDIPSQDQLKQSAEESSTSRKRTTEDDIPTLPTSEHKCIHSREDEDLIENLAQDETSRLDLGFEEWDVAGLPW
# Legend:
# hDMX_(1-200) [1] = target: T1, hDMX_(1-200); experiment: fluorescence polarisation
# hDMX_(1-200) [2] = target: T1, hDMX_(1-200); experiment: fluorescence polarisation; remark: listed apart in the source
Binder,Kd (hDMX_(1-200) [1]) [µM],IC50 (hDMX_(1-200) [2]) [µM]
"MRPFMDYWEGLN (also: fluorescent label (flu), position not given here) [p53 12/1^flu]",0.237 ± 0.0215,–
"SQETFSDLWKLLPENNV (peptide, UniProt P04637 15-31, looked up, also: fluorescent label (flu), position not given here) [p53AD15−31^flu]",0.841 ± 0.0288,–
MRPFMDYWEGLN [p53 12/1],–,3.87 ± 0.389

# Reference: publication PMC2926950 (Bioorganic & medicinal chemistry, 2009)
